# Assay results as given in article PMC4591933 (Cancer research, 2008).
# B1: Shc-CLuc (human p52Shc fused to the C-terminal fragment of firefly luciferase) (natural protein, UniProt P29353-2 1-473, looked up)
# chain: MNKLSGGGGRRTRVEGGQLGGEEWTRHGSFVNKPTRGWLHPNDKVMGPGVSYLVRYMGCVEVLQSMRALDFNTRTQVTREAISLVCEAVPGAKGATRRRKPCSRPLSSILGRSNLKFAGMPITLTVSTSSLNLMAADCKQIIANHHMQSISFASGGDPDTAEYVAYVAKDPVNQRACHILECPEGLAQDVISTIGQAFELRFKQYLRNPPKLVTPHDRMAGFDGSAWDEEEEEPPDHQYYNDFPGKEPPLGGVVDMRLREGAAPGAARPTAPNAQTPSHLGATLPVGQPVGGDPEVRKQMPPPPPCPGRELFDDPSYVNVQNLDKARQAVGGAGPPNPAINGSAPRDLFDMKPFEDALRVPPPPQSVSMAEQLRGEPWFHGKLSRREAEALLQLNGDFLVRESTTTPGQYVLTGLQSGQPKHLLLVDPEGVVRTKDHRFESVSHLISYHMDNHLPIISAGSELCLQQPVERKL
# Target: EGFR-NLuc (human EGF receptor fused to the N-terminal fragment of firefly luciferase) (human, UniProt P00533 25-1210)
# Assay: split reporter
binder,measurement,value
B1,"fold induction of reconstituted luciferase over control, 15 min after EGF",2.5 fold over control
